Measurements taken from patent US7998940B2, “Aptamers to von Willebrand factor and their use as thrombotic disease therapeutics” (Archemix Corp., priority 2004, dated 2011).
Where two headings read alike, the source gives them in different places. Oligonucleotides are written 5' to 3', each unit as a sugar letter and its base; * is a phosphorothioate linkage, no mark a phosphodiester; rarer units and linkages stand in square brackets, end groups in braces. Plain capitals give the bases only. [invdT] = inverted (3'-3') thymidine; d = 2'-deoxy (DNA); m = 2'-O-methyl; r = 2'-OH (RNA); f = 2'-fluoro

Tests used:
[1] = system: full length human vWF binding to lyophilized platelets; test: Full length human von Willebrand Factor platelet binding assay (FACS); assay type: cell-based; conditions: for Inhibition of full length hVWF binding in FACS assay, IC50 range: both bounds in nM
Method in brief: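 Aptamer titrations (0.1–1000 nM) pre-incubated with 5 nM full-length human vWF, then added to lyophilized platelets plus botrocetin for 15 min at 37 °C in PBS/0.5% BSA. Bound vWF detected by anti-vWF then FITC secondary antibody via flow cytometry MFI; % inhibition versus no-aptamer binding fitted for IC50.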

[2] = system: rabbit vWF domain A1 binding to lyophilized platelets; test: Rabbit von Willebrand Factor domain A1 platelet binding assay (FACS); assay type: cell-based
Method in brief: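 Aptamers (0.1–1000 nM) preincubated with 4 nM His-tagged rabbit vWF A1 in PBS/0.5% BSA, then lyophilized human platelets plus botrocetin added, 15 min at 37 °C. Bound A1 detected by anti-His-biotin and PE secondary via flow cytometry (median fluorescence, background-subtracted); IC50 fitted from percent inhibition.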

full length human vWF = test: 3-point dot blot screen, full length human vWF; assay type: binding; conditions: 20 nM full length human vWF, ratio of fraction of aptamer bound with target protein to fraction bound without protein
Method in brief: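 Unique aptamer clones tested twice by nitrocellulose dot blot with no protein, 20 nM full-length human vWF or 20 nM rabbit vWF A1 domain. Value is fraction of aptamer bound with target divided by fraction bound without protein.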

[3] = read-out: FACS IC50 vs human full length vWF
[4] = read-out: FACS IC50 vs rabbit A1 domain
[5] = 5 nM full length human vWF, lyophilized platelets, botrocetin, read-out: Inhibition of full length hVWF binding in FACS assay, Average IC50
[6] = 5 nM full length human vWF, lyophilized platelets, botrocetin, units in the cell: lower bound pM, upper bound nM, read-out: Inhibition of full length hVWF binding in FACS assay, IC50 range
[7] = 4 nM rabbit A1 vWF, lyophilized platelets, botrocetin, read-out: Inhibition of rabbit VWF A1 domain binding in FACS assay, Average IC50
[8] = 5 nM full length human vWF, lyophilized platelets, botrocetin
[9] = 4 nM rabbit A1 vWF, lyophilized platelets, botrocetin, both bounds in nM
[10] = 4 nM rabbit A1 vWF, lyophilized platelets, botrocetin, both bounds in nM, read-out: Inhibition of rabbit VWF A1 domain binding in FACS assay, IC50 range

Sequence of rabbit vWF domain A1 binding to lyophilized platelets (as listed by the source): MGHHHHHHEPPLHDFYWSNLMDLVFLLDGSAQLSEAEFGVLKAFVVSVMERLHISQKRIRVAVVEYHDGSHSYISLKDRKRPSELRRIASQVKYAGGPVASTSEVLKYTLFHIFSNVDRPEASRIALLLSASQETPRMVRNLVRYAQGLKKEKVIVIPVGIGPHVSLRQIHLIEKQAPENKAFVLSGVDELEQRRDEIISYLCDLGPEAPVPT

Molecule	IC50 [1, 5] [pM]	Screen- Human/No Protein (full length human vWF)	IC50 [1, 6] [pM]	IC50 [2, 10] [pM]	other results
dGdGdCdGTdGdCdAdGTdGdCdCTTdCdGdGdCdCdGTdGdCdGdGTdGdCdCTdCdCdGTdCdAdCdGdCdC-3T (DNA GGCGTGCAGTGCCTTCGGCCGTGCGGTGCCTCCGTCACGCC; DNA, [invdT] at 3' end, backbone and methylation of C not given here) [ARC1172, ARC1115 with 3'-inverted dT]					IC50 [1, 3]: 2000 pM; IC50 [2, 4]: 2000 pM
mGmCmGmUdGdCdAmGmUmGmCmCmUmUmCmGmGmCdCmG-s-TmGdCdGdGTmGmCdCmUdCdCmGmUdCmAmCmGmC-3T (GCGUGCAGUGCCUUCGGCCGTGCGGTGCCUCCGUCACGC; sugars from the 5' end mmmmdddmmmmmmmmmmmdmdmddddmmdmddmmdmmmm, [invdT] at 3' end, backbone not given here) [ARC1368]					IC50 [1, 3]: 2000 pM; IC50 [2, 4]: 4000 pM
AMX237.G6: DNA SELEX 2 aptamer clone (nucleic acid, DNA, backbone and methylation of C not given here, DNA SELEX 2 aptamer clone) DNA: CTACCTACGATCTGACTAGCGTGCAGTGCCTATTCCAGGCCGTGCGGTGCCTCCGTCACGCTTACTCTCATGTAGTTCC	1900	3.80			
AMX201.C8: rRfY aptamer clone (nucleic acid) rGrGrArGfCrGfCrAfCfUfCrArGfCfCrAfCfCfCfUfCrGfCrArArGfCrAfUfUfUfUrArArGrArAfUrGrAfCfUfUrGfUrGfCfCrGfCfUrGrGfCfUrGfUfUfUfUfCrGrAfCfCfUfCfUfCfUrGfCfUrArGfC	528		24 to 1800		IC50 [2, 7]: 682 pM
AMX203.G9: rRdY aptamer clone (nucleic acid) rGrGrArGdCrGdCrAdCdTdCrArGdCdCrAdCrGrGrGrGdTrGrGrGdTrArGrAdCrGrGdCrGrGrGdTrAdTrGdTrGrGdCdTrGrGdTrGdTdCrGrArArGrGrGdTdTdTdCrGrAdCdCdTdCdTdCdTrGdCdTrArGdC	4700				IC50 [2, 7]: 592 pM; IC50 ([2]; 4 nM rabbit A1 vWF, lyophilized platelets, botrocetin, units in the cell: lower bound pM, upper bound nM, read-out: Inhibition of rabbit VWF A1 domain binding in FACS assay, IC50 range): 152 to 1600 pM
AMX206.D8: rRdY aptamer clone (nucleic acid) rGrGrArGdCrGdCrAdCdTdCrArGdCdCrAdCrGrAdCrGrGdTrGrAdTrGrGrAdTdTrArGdCrGdCrGrGdTrGrGrAdTdCdTdTrArAdCrGdTrGdCrGrArGdTdTdTdCrGrAdCdCdTdCdTdCdTrGdCdTrArGdC					Inhibition of full length hVWF binding in FACS assay, IC50 range [1, 8]: no activity; Inhibition of rabbit VWF A1 domain binding in FACS assay, IC50 range [2, 9]: no activity
AMX205.F7: rRdY aptamer clone (nucleic acid) rGrGrArGdCrGdCrAdCdTdCrArGdCdCrAdCrAdCrGrAdCrAdTdTrGrGdCrGrGrGdTdTrGdTrArAdTdTrAdCdCrAdCrGdCrAdTrGrGdCdTrGdTdTdTrGdTdTdTdCrGrAdCdCdTdCdTdCdTrGdCdTrArGdC	818		321 to 1600		IC50 [2, 7]: 4700 pM
AMX205.H10: rRdY aptamer clone (nucleic acid) rGrGrArGdCrGdCrAdCdTdCrArGdCdCrAdCdTrGdTdTrGdCdCrGrAdCrGrGdTrGrAdTrGdTrAdTdTrArAdCrGdCrGrGrGdCrArAdCrGdTdTrGrGdTrGdTdTdTdCrGrAdCdCdTdCdTdCdTrGdCdTrArGdC					Inhibition of full length hVWF binding in FACS assay, IC50 range [1, 8]: no activity; Inhibition of rabbit VWF A1 domain binding in FACS assay, IC50 range [2, 9]: no activity
AMX237.A2: DNA SELEX 2 aptamer clone (nucleic acid, DNA, backbone and methylation of C not given here, DNA SELEX 2 aptamer clone) CTACCTACGATCTGACTAGCTCCAGTGTTTCATCCAATAACCGTGCGGTGCCTCCGTGAGCTTACTCTCATGTAGTTCC	3500	2.60	815 to 7300	7000	
AMX238.D12: DNA SELEX 2 aptamer clone (nucleic acid, DNA, backbone and methylation of C not given here, DNA SELEX 2 aptamer clone) DNA: CTACCTACGATCTGACTAGCTCCAGTGTTTCATTCAATAACCGTGCGGTGCCTCCGTGAGCTTACTCTCATGTAGTTCC	2000	2.40	684 to 3400	7200	
AMX238.G5: DNA SELEX 2 aptamer clone (nucleic acid, DNA, backbone and methylation of C not given here, DNA SELEX 2 aptamer clone) DNA: CTACCTACGATCTGACTAGCTCCAGTGTTTTATTCAATAACCGTGCGGTGCCTCCGTGAGCTTACTCTCATGTAGTTCC	1100	3.06	273 to 2600	5500	
AMX237.B11: DNA SELEX 2 aptamer clone (nucleic acid, DNA, backbone and methylation of C not given here, DNA SELEX 2 aptamer clone) DNA: CTACCTACGATCTGACTAGCTCCAGTGTTTTATCTAATAACCGTGCGGTGCCTCCGTGAGCTTACTCTCATGTAGTTCC	2500	2.87	151 to 4800	5700	
AMX237.A11: DNA SELEX 2 aptamer clone (nucleic acid, DNA, backbone and methylation of C not given here, DNA SELEX 2 aptamer clone) CTACCTACGATCTGACTAGCTCCAGTGTTTTATCCAATAACCGTGCGGTGCCTCCGTGAGCTTACTCTCATGTAGTTCC	2200	2.66	466 to 5600	4700	
